For nine molecules, EC50 results are on record in EP4736885A1 (CSPC Megalith Biopharmaceutical Co., Ltd., dated 2025).

Numbering of substitutions follows the chain as printed.

T1: B7H3 on B7H3-positive human melanoma A375 cells (human, UniProt Q5ZPR3 29-534)
T1 construct: whole, on cells; Endogenous B7H3 on A375 cells; also called B7H3-positive A375 cells
T1 sequence (looked up): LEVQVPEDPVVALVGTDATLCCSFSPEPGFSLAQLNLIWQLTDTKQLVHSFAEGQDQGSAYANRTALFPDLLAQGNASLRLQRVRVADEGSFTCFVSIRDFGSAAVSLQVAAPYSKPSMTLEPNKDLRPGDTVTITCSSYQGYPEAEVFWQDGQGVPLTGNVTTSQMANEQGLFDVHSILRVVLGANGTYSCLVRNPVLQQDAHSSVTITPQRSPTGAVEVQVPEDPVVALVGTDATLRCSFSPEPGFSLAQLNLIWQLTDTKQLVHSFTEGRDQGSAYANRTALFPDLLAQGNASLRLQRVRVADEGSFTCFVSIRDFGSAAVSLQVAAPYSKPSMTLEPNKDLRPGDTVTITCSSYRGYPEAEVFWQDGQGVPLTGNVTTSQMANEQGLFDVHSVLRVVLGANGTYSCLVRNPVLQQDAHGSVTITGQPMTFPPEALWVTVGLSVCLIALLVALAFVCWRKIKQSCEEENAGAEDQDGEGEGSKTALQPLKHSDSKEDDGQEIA

T2: His-tagged human B7H3 protein (purchased from Beijing ACROBiosystems Co., Ltd.) (human, UniProt Q5ZPR3-2 29-245, limits assumed)
T2 construct: not shown: His tag
T2 sequence (looked up): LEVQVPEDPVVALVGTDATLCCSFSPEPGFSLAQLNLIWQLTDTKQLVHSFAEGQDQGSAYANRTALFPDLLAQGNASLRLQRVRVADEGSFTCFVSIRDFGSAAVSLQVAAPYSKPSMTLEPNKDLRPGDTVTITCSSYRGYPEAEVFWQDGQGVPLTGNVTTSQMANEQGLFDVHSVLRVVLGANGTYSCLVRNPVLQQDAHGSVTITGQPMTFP

B1: antibody-drug conjugate 43B-045-6 (antibody, human IgG1, kappa, L234A L235A)
heavy: QVQLVQSGAEVKKPGASVKVSCKASGYTFTDYFMNWVRQAPGQGLEWMGDVNPKTGSPSYNQKFKGRVTMTRDTSTSTVYMELSSLRSEDTAVYYCARRYGFLYSMDYWGQGTSVTVSSASTKGPSVFPLAPSSKSTSGGTAALGCLVKDYFPEPVTVSWNSGALTSGVHTFPAVLQSSGLYSLSSVVTVPSSSLGTQTYICNVNHKPSNTKVDKRVEPKSCDKTHTSPPCPAPEAAGGPSVFLFPPKPKDTLMISRTPEVTCVVVDVSHEDPEVKFNWYVDGVEVHNAKTKPREEQYNSTYRVVSVLTVLHQDWLNGKEYKCKVSNKALAASIEKTISKAKGQPREPQVYTLPPSREEMTKNQVSLTCLVKGFYPSDIAVEWESNGQPENNYKTTPPVLDSDGSFFLYSKLTVDKSRWQQGNVFSCSVMHEALHNHYTQKSLSLSPGK
light: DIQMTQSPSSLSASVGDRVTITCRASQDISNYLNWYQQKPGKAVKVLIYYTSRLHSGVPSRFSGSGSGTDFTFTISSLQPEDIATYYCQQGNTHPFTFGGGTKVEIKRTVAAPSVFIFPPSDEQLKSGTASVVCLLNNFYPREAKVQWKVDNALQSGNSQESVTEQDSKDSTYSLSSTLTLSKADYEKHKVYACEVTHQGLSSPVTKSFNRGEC
modifications: linker-drug compound 045 (exatecan) on thiols of reduced interchain cysteines; DAR of the whole conjugate 5.7
B2: anti-B7H3 antibody 43A (antibody, human IgG1, kappa, L234A L235A)
heavy: B1 heavy with S228C
light: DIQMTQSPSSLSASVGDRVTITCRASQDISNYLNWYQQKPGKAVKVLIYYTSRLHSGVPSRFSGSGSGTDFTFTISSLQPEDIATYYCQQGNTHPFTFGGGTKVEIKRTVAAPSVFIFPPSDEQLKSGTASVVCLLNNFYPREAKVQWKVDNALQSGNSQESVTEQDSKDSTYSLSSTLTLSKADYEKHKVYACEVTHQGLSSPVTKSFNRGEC
notes: 2 identical heavy chains and 2 identical light chains
B3: anti-B7H3 antibody 43B (antibody, human IgG1, kappa, L234A L235A)
heavy: B1 heavy
light: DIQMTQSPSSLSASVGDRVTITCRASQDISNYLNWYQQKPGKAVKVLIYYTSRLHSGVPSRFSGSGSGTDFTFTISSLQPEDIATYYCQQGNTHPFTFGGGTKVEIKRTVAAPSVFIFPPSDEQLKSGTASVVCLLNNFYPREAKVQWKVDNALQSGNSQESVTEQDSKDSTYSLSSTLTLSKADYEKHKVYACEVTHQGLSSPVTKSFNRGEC
notes: as for B2
B4: M30 antibody (CN103687945B) (antibody, human IgG1, kappa, V domains shown)
VH: QVQLVQSGAEVKKPGSSVKVSCKASGYTFTNYVMHWVRQAPGQGLEWMGYINPYNDDVKYNEKFKGRVTITADESTSTAYMELSSLRSEDTAVYYCARWGYYGSPLYYFDYWGQGTLVTVSS
VL: EIVLTQSPATLSLSPGERATLSCRASSRLIYMHWYQQKPGQAPRPLIYATSNLASGIPARFSGSGSGTDFTLTISSLEPEDFAVYYCQQWNSNPPTFGQGTKVEIKR
notes: also called M30-H1/M30-L4
B5: antibody-drug conjugate 43A-042 (antibody, human IgG1, kappa, L234A L235A)
heavy: B1 heavy with S228C
light: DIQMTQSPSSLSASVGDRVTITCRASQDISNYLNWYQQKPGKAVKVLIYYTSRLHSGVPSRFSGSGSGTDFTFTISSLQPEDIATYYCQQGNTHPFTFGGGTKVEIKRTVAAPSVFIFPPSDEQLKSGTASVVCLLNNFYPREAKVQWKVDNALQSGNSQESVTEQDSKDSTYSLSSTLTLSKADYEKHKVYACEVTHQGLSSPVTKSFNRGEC
modifications: linker-drug compound A_10 (exatecan) on thiols of reduced interchain cysteines; DAR of the whole conjugate 7.6
B6: antibody-drug conjugate 43A-043 (antibody, human IgG1, kappa, L234A L235A)
heavy: B1 heavy with S228C
light: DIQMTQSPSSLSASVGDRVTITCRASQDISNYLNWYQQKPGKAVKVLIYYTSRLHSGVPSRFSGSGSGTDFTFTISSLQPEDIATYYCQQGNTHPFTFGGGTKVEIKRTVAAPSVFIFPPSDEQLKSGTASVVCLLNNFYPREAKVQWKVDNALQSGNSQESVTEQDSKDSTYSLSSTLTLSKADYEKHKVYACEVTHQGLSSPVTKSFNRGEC
modifications: linker-drug compound B_3 (exatecan) on thiols of reduced interchain cysteines; DAR of the whole conjugate 7.8
B7: antibody-drug conjugate 43A-DXd (antibody, human IgG1, kappa, L234A L235A)
heavy: B1 heavy with S228C
light: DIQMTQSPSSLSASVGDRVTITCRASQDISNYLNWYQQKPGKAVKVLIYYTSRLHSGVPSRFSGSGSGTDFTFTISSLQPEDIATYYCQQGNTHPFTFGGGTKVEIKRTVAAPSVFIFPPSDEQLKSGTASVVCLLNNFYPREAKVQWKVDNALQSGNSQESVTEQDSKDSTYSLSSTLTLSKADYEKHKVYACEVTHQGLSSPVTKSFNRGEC
modifications: deruxtecan linker-drug on thiols of reduced interchain cysteines; DAR of the whole conjugate 7.4
B8: antibody-drug conjugate 43B-043 (antibody, human IgG1, kappa, L234A L235A)
heavy: B1 heavy
light: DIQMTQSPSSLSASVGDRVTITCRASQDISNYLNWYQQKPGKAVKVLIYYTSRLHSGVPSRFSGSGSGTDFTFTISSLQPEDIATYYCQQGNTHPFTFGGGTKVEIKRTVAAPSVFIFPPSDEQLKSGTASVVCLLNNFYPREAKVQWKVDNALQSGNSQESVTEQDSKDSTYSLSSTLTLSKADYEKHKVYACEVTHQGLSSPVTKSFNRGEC
modifications: linker-drug compound B_3 (exatecan) on thiols of reduced interchain cysteines; DAR of the whole conjugate 5.9
B9: antibody-drug conjugate 43B-042 (antibody, human IgG1, kappa, L234A L235A)
heavy: B1 heavy
light: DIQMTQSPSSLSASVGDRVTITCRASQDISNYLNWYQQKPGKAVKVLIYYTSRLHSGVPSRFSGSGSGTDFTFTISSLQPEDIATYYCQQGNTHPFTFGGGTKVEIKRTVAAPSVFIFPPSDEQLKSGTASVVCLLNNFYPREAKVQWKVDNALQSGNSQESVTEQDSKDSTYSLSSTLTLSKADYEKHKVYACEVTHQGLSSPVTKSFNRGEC
modifications: linker-drug compound A_10 (exatecan) on thiols of reduced interchain cysteines; DAR of the whole conjugate 5.9

The first assay concerns the target T1, B7H3 on B7H3-positive human melanoma …. The assay is described as follows: flow cytometry on B7H3-positive A375 cells, MFI. On the technique in general: A flow cytometer gives signals particle by particle.
Take B1: the EC50 amounted to 37.8 ng/mL.
B2 displayed a concentration giving a half-maximal response (EC50) of 54.5 ng/mL.
For B3, the midpoint of the response, the EC50, lay at 61.2 ng/mL.
On the same count and under the same terms, as for B4, the figure is 125 ng/mL.

The next assay addresses T2, His-tagged human B7H3 protein …. The assay is described as follows: ELISA, His-tagged human B7H3 coated on plate, anti-human IgG-HRP. For orientation: ELISA stands for enzyme-linked immunosorbent assay.
The molecule B2 yielded a concentration giving a half-maximal response (EC50) of 1.02 ng/mL.
Molecule B5 had an EC50 of 1.17 ng/mL.
B6 came in with a concentration for a half-maximal effect (EC50) of 1.09 ng/mL.
On the same count and under the same terms, then B7, with 1.19 ng/mL; and B3, with 1.05 ng/mL.
In the case of B8, the concentration for a half-maximal effect (EC50) came to 1.05 ng/mL.
In turn, B9 had a concentration giving a half-maximal response (EC50) of 1.16 ng/mL.

In general, EC50 refers to the midpoint of the concentration-response curve. A higher EC50 goes with weaker potency.
